For this assay, the target named is acetylcholine receptor (Homo sapiens, UniProt P02708). The assay is described as follows: SPR binding affinity (RU) of optimized 5mer/6mer/7mer peptides, Examples 6-7. The following applies: 6mer-2 Top sequence; SPR; peptides tested at 10 μM. Summed up: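 Synthetic 5mer and 6mer peptides, built from frequent or infrequent amino-acid combinations, were tested at 10 μM for binding to the human acetylcholine receptor by surface plasmon resonance. Binding is reported in response units (RU).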

The text below walks through data of patent publication US20250011363A1, “OPTIMIZED SHORTENED PEPTIDE THAT BINDS TO ACETYLCHOLINE RECEPTOR, AND USE THEREOF” (SKINMED CO., LTD., priority 2021, published 2025).

Chain of acetylcholine receptor (P02708 21-457): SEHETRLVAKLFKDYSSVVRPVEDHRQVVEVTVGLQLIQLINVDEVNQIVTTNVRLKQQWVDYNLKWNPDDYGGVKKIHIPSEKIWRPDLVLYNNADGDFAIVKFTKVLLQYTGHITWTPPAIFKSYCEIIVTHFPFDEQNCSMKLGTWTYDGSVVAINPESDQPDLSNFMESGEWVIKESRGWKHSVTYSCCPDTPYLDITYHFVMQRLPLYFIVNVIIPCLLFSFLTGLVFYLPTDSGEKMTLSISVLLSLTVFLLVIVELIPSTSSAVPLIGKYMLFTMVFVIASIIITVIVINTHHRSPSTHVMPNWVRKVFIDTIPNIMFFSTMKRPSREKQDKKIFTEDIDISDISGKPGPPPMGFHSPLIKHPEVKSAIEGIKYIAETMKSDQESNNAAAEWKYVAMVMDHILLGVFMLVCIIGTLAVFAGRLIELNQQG

As for 6mer-2-42 (KLLSKR), the Binding affinity came to 126 Ru.

For 6mer-2-43 (RVITKR), the Binding affinity worked out at 146 Ru.

As for 6mer-2-44 (KSVRRK), the Binding affinity is reported as 145 Ru.

For the substance 6mer-2-45 (RSLTKK), the Binding affinity is given as 121 Ru.

As for 6mer-2-46 (KLYLKR), the Binding affinity came out at 153 Ru.

As for 6mer-2-47 (KLQSRR), the Binding affinity came to 148 Ru.

For the substance 6mer-2-48 (RRFRKK), the Binding affinity came to 153 Ru.

Regarding 6mer-2-49 (RLRCRK), the Binding affinity was 154 Ru.

Regarding 6mer-2-50 (RSQSKR), the Binding affinity stood at 125 Ru.

As to 6mer-2-51 (KQFLKK), the Binding affinity came out at 139 Ru.

On to 6mer-2-52 (KRQRKK), for which the Binding affinity was 136 Ru.

With 6mer-2-53 (KSLSRR), the Binding affinity stood at 125 Ru.

For the substance 6mer-2-54 (KGRRRR), the Binding affinity is given as 124 Ru.

In the case of 6mer-2-55 (RLFYKK), the Binding affinity worked out at 125 Ru.

Take 6mer-2-56 (RSQLRR): the Binding affinity came to 149 Ru.

6mer-2-57 (KQRCRR): the Binding affinity came to 139 Ru.

In the case of 6mer-2-58 (KRLQRK), the Binding affinity is 122 Ru.

Turning to 6mer-2-59 (RVLSRK), the Binding affinity worked out at 123 Ru.

With 6mer-2-60 (RRLSKK), the Binding affinity is given as 148 Ru.

For the substance 6mer-2-61 (RGFQRK), the Binding affinity is 148 Ru.

With 6mer-2-62 (RLVTKR), the Binding affinity stood at 147 Ru.

With 6mer-2-63 (KSFRKR), the Binding affinity amounted to 121 Ru.

As to 6mer-2-64 (KSVSKK), the Binding affinity turned out to be 136 Ru.

For the substance 6mer-2-65 (KGVCKR), the Binding affinity is recorded as 148 Ru.

In the case of 6mer-2-66 (RVIRRR), the Binding affinity amounted to 123 Ru.

For the substance 6mer-2-67 (KLFCKK), the Binding affinity came to 124 Ru.

For 6mer-2-68 (KGRRRK), the Binding affinity is 142 Ru.

On to 6mer-2-69 (KWFLRK), for which the Binding affinity amounted to 139 Ru.

On to 6mer-2-70 (KRLLRK), for which the Binding affinity is listed as 126 Ru.

As for 6mer-2-71 (KQVYKR), the Binding affinity came to 141 Ru.

On to 6mer-2-72 (KRIQKK), for which the Binding affinity was determined as 144 Ru.

With 6mer-2-73 (RLYTKR), the Binding affinity was 139 Ru.

In the case of 6mer-2-74 (RWIYKR), the Binding affinity is reported as 136 Ru.

Turning to 6mer-2-75 (KLYTRK), the Binding affinity is 133 Ru.

Regarding 6mer-2-76 (RRQSRK), the Binding affinity is 142 Ru.

As for 6mer-2-77 (KQQTRR), the Binding affinity amounted to 123 Ru.

For 6mer-2-78 (KRYLKR), the Binding affinity is recorded as 135 Ru.

Turning to 6mer-2-79 (RQLSKR), the Binding affinity is recorded as 135 Ru.

6mer-2-80 (RRQYKR): the Binding affinity amounted to 148 Ru.

As for 6mer-2-81 (RRVSRR), the Binding affinity is given as 121 Ru.

As for 6mer-2-82 (RGVQKK), the Binding affinity was determined as 124 Ru.

In the case of 6mer-2-83 (KQYQRR), the Binding affinity is on record as 135 Ru.

6mer-2-84 (KQRYKK): the Binding affinity amounted to 139 Ru.

Consider 6mer-2-85 (KSQYKR), for which the Binding affinity was 137 Ru.

As for 6mer-2-86 (KQFRRK), the Binding affinity is recorded as 126 Ru.

With 6mer-2-87 (RRLTKR), the Binding affinity was determined as 142 Ru.

With 6mer-2-88 (KSFQRR), the Binding affinity is 141 Ru.

Turning to 6mer-2-89 (KSRSKK), the Binding affinity is given as 141 Ru.

With 6mer-2-90 (KGRTKR), the Binding affinity turned out to be 133 Ru.

As to 6mer-2-91 (KWIYKR), the Binding affinity is 121 Ru.

Turning to 6mer-2-92 (KVVCKR), the Binding affinity turned out to be 131 Ru.

6mer-2-93 (RWQTRR): the Binding affinity was 133 Ru.

Turning to 6mer-2-94 (RLYQRK), the Binding affinity was 126 Ru.

For 6mer-2-95 (RRIYRK), the Binding affinity was 142 Ru.

With 6mer-2-96 (KWRQRK), the Binding affinity worked out at 154 Ru.

For the substance 6mer-2-97 (RQFYRK), the Binding affinity was 154 Ru.

Regarding 6mer-2-98 (RRQQRR), the Binding affinity stood at 148 Ru.

On to 6mer-2-99 (RQRSRR), for which the Binding affinity turned out to be 151 Ru.

With 6mer-2-100 (RRRCRR), the Binding affinity came out at 142 Ru.

Regarding 6mer-2-101 (RLICRK), the Binding affinity turned out to be 154 Ru.

For the substance 6mer-2-102 (KVYQKK), the Binding affinity stood at 139 Ru.

With 6mer-2-103 (RVVTKK), the Binding affinity is 136 Ru.

For 6mer-2-104 (RGVCRK), the Binding affinity amounted to 145 Ru.

Turning to 6mer-2-105 (RGFTRR), the Binding affinity was found to be 151 Ru.

As for 6mer-2-106 (RWVQRK), the Binding affinity worked out at 123 Ru.

On to 6mer-2-107 (RGVYRK), for which the Binding affinity is given as 144 Ru.

As to 6mer-2-108 (RVVYKK), the Binding affinity is 153 Ru.

For 6mer-2-109 (RRVYRK), the Binding affinity is recorded as 144 Ru.

Regarding 6mer-2-110 (KSQLKK), the Binding affinity was determined as 153 Ru.

For the substance 6mer-2-111 (KLIRRK), the Binding affinity is on record as 123 Ru.

Regarding 6mer-2-112 (RLQQKR), the Binding affinity worked out at 142 Ru.

6mer-2-113 (KRYSRK): the Binding affinity is reported as 145 Ru.

Consider 6mer-2-114 (KLQYRK), for which the Binding affinity turned out to be 121 Ru.

For the substance 6mer-2-115 (KWQYRK), the Binding affinity worked out at 144 Ru.

In the case of 6mer-2-116 (KLQRKK), the Binding affinity came to 126 Ru.

As for 6mer-2-117 (KRYTRK), the Binding affinity worked out at 148 Ru.

As to 6mer-2-118 (KWFSRR), the Binding affinity is given as 135 Ru.

Turning to 6mer-2-119 (RSISKK), the Binding affinity was found to be 139 Ru.

For 6mer-2-120 (RRQCRK), the Binding affinity is recorded as 146 Ru.

With 6mer-2-121 (KRVYRK), the Binding affinity was determined as 137 Ru.

Turning to 6mer-2-122 (RVITKK), the Binding affinity is 125 Ru.

Turning to 6mer-2-123 (RQFTKR), the Binding affinity amounted to 146 Ru.

Consider 6mer-2-124 (KWQLKR), for which the Binding affinity amounted to 126 Ru.

For the substance 6mer-2-125 (KVQLRR), the Binding affinity is reported as 142 Ru.

With 6mer-2-126 (KWLYRR), the Binding affinity came out at 148 Ru.

Consider 6mer-2-127 (RLYLRK), for which the Binding affinity amounted to 136 Ru.

Take 6mer-2-128 (KSYYRR): the Binding affinity is on record as 147 Ru.

As for 6mer-2-129 (KSVLRK), the Binding affinity is on record as 139 Ru.

Consider 6mer-2-130 (RGVCRR), for which the Binding affinity was 122 Ru.

For the substance 6mer-2-131 (KQQTKR), the Binding affinity was 148 Ru.

For 6mer-2-132 (KLYCKK), the Binding affinity was 139 Ru.

For the substance 6mer-2-133 (KRRLKK), the Binding affinity stood at 145 Ru.

As to 6mer-2-134 (RLFQRK), the Binding affinity is 148 Ru.

For the substance 6mer-2-135 (RWFYKK), the Binding affinity was determined as 124 Ru.

6mer-2-137 (KVFCKK): the Binding affinity is 135 Ru.

As to 6mer-2-138 (KQRRRK), the Binding affinity was 153 Ru.

6mer-2-139 (KLFRKK): the Binding affinity worked out at 149 Ru.

In the case of 6mer-2-140 (KGRLKK), the Binding affinity is listed as 142 Ru.
